Laboratory results reported in patent US20050282743A1, “Molecular interactions in cells” (Arbor Vita Corporation, priority 2001, published 2005).

Experiments:
[1] = molecular target: T1, GST-Outer Membrane PDZ domain 1 (Homo sapiens (Human)), P57105; assay: G' assay; note: key of the grades not given here
T1 chain: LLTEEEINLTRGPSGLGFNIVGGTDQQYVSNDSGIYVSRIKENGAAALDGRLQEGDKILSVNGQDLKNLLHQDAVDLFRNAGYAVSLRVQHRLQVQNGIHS

[2] = molecular target: GST-KIAA807 [GST: P08515]; assay: G' assay; note: key of the grades not given here
GST-KIAA807 [GST: P08515], sequence (P08515 whole entry, the tested form may be a part): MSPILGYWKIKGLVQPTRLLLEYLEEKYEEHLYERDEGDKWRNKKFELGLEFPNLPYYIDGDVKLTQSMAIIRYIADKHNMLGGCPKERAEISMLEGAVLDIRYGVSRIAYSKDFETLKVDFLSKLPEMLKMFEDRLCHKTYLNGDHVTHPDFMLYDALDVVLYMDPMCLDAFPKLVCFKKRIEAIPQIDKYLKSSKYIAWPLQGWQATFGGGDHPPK

[3] = molecular target: T2, GST-Shank 1 PDZ domain 1 (Homo sapiens (Human)), Q9UPX8; assay: G' assay; note: key of the grades not given here
T2 chain: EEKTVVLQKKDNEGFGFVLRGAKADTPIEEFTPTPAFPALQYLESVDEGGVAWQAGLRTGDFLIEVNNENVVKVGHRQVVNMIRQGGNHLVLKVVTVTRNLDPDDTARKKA

[4] = molecular target: T3, GST-KIAA0382 PDZ domain 1 (Canis lupus familiaris (Dog) (Canis familiaris)), A0A8I3; assay: G' assay; note: key of the grades not given here
T3 chain: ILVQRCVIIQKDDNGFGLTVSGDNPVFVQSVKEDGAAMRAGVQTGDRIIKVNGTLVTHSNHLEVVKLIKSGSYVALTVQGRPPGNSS

[5] = molecular target: T4, GST-PDZK1 PDZ domains 2, 3, 4, Q5T2W1; assay: G' assay; note: key of the grades not given here
T4 chain: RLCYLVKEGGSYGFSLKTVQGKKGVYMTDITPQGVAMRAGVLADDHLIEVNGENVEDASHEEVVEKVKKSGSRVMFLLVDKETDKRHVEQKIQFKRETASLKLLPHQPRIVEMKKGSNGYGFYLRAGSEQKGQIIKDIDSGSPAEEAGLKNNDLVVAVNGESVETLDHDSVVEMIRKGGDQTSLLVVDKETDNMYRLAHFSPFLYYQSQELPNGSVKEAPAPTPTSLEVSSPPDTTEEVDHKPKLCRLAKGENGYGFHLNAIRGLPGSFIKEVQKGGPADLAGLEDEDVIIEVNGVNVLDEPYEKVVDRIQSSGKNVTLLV

[6] = molecular target: GST-KIAA0316 PDZ domain 1 (Homo sapiens (Human)), Q14CM0; assay: G' assay; settings: remark: other sources report otherwise; note: key of the grades not given here
GST-KIAA0316 PDZ domain 1 (Homo sapiens (Human)), Q14CM0, sequence (Q14CM0 72-159): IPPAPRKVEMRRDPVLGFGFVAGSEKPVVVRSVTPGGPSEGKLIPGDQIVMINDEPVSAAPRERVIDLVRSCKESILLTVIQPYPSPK

[7] = molecular target: GST-PIST PDZ domain 1 (Mus musculus (Mouse)), Q8BH60; assay: G' assay; note: key of the grades not given here
[8] = molecular target: GST-Atrophin-1 Interacting Protein PDZ domain 5 (Rattus norvegicus (Rat)), O88382; assay: G' assay; note: key of the grades not given here
GST-Atrophin-1 Interacting Protein PDZ domain 5 (Rattus norvegicus (Rat)), O88382, sequence (O88382 1128-1225): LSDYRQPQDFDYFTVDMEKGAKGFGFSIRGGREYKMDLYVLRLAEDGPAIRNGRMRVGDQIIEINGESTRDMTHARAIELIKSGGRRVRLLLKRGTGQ

[9] = molecular target: T5, GST-KIAA0807(S) PDZ domain 1 (Homo sapiens (Human)), Q6P0Q8; assay: G' assay; note: key of the grades not given here
T5 chain: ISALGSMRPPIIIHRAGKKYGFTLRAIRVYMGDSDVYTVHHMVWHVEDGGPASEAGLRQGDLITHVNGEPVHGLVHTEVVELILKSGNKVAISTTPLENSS

[10] = molecular target: T6, GST-Shank 3 PDZ domain 1 (human (hypothetical, computer cloned)), Q9BYB0; assay: G' assay; note: key of the grades not given here
T6 chain: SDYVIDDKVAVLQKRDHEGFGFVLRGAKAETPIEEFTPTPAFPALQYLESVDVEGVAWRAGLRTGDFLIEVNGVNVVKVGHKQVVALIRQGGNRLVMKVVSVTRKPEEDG

[11] = molecular target: T7, GST-APXL-1 PDZ domain 1 (Homo sapiens (Human)), Q13796; assay: G' assay; note: key of the grades not given here
T7 chain: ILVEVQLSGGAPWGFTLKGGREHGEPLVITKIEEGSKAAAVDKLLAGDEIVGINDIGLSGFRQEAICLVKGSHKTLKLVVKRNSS

[12] = molecular target: T8, GST-FLJ00011 PDZ domain 1 (Homo sapiens (Human)), Q9H5P4; assay: G' assay; note: key of the grades not given here
T8 chain: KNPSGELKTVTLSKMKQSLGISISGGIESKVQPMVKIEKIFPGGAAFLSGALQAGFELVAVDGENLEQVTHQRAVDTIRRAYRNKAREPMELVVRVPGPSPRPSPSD

[13] = molecular target: T5, GST-KIAA0807(S) PDZ domain 1 (Homo …); assay: G assay titration, PDZ 0.5 ug/ml
[14] = molecular target: GST-KIAA1634 PDZ domain 5 (Homo sapiens (Human)), Q5TCQ9; assay: G' assay; note: key of the grades not given here
GST-KIAA1634 PDZ domain 5 (Homo sapiens (Human)), Q5TCQ9, sequence (Q5TCQ9 other isoform, or with tags, fused parts or gaps): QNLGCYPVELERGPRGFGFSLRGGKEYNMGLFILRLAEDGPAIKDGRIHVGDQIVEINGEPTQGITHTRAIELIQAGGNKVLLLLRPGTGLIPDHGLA

[15] = molecular target: T9, GST-LIM-RIL PDZ domain 1 (Homo sapiens (Human)), P50479; assay: G' assay; note: key of the grades not given here
T9 chain: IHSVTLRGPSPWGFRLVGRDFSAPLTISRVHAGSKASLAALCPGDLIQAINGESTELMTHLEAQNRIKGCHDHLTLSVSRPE

[16] = molecular target: GST-BAI-1 Associated Protein PDZ domain 6 (Homo sapiens (Human)), Q96QZ7; assay: G' assay; note: key of the grades not given here
GST-BAI-1 Associated Protein PDZ domain 6 (Homo sapiens (Human)), Q96QZ7, sequence (Q96QZ7 1143-1233): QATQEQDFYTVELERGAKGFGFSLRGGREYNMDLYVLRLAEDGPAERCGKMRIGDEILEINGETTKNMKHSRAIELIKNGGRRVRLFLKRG

[17] = molecular target: GST-KIAA0147 PDZ domain 1 (Homo sapiens (Human)), Q14160; assay: G' assay; note: key of the grades not given here
GST-KIAA0147 PDZ domain 1 (Homo sapiens (Human)), Q14160, sequence (Q14160 other isoform, or with tags, fused parts or gaps): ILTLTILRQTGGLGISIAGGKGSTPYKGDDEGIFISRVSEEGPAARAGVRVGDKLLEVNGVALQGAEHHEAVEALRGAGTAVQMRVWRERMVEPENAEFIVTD

[18] = molecular target: T10, GST-PTN-4 PDZ domain 1 (Homo sapiens (Human)), P29074; assay: G' assay; note: key of the grades not given here
T10 chain: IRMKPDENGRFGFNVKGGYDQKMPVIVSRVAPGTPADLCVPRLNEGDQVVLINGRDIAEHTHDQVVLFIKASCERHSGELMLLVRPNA

[19] = molecular target: T11, GST-KIAA1526 PDZ domain 1 (Homo sapiens (Human)), Q9P202; assay: G' assay; note: key of the grades not given here
T11 chain: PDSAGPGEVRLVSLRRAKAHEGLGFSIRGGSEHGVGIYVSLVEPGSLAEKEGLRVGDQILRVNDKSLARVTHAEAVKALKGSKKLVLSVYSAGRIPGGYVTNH

[20] = molecular target: T12, GST-ZO-2 PDZ domain 2 (Homo sapiens (Human)), Q9UDY2; assay: G' assay; note: key of the grades not given here
T12 chain: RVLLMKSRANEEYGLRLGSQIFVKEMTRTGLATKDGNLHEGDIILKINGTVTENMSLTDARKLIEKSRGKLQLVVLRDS

[21] = molecular target: T13, GST-ZO-1 PDZ domain 2 (Rattus norvegicus (Rat)), A0A0G2; assay: G' assay; note: key of the grades not given here
T13 chain: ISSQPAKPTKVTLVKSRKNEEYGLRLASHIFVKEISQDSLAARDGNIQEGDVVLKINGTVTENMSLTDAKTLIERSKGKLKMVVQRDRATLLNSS

[22] = molecular target: T14, GST-ZO-1 PDZ domain 1 (Rattus norvegicus (Rat)), A0A0G2; assay: G' assay; note: key of the grades not given here
T14 chain: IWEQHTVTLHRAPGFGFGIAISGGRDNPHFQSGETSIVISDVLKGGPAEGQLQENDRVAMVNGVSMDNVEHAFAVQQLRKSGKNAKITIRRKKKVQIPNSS

[23] = molecular target: GST-PAR3 PDZ domain 3 (Homo sapiens (Human)), Q8TEW0; assay: G' assay; note: key of the grades not given here
GST-PAR3 PDZ domain 3 (Homo sapiens (Human)), Q8TEW0, sequence (Q8TEW0 579-681): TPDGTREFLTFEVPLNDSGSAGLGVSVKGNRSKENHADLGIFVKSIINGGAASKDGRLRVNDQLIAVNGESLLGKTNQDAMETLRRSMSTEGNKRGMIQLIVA

[24] = molecular target: T15, GST-KIAA0973 PDZ domain 1 (Homo sapiens (Human)), Q9Y2H9; assay: G' assay; note: key of the grades not given here
T15 chain: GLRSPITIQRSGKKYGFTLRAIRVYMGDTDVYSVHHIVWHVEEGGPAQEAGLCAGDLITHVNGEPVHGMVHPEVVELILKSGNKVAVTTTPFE

[25] = molecular target: T16, GST-AIPC PDZ domain 1 (Homo sapiens (Human)), O15018; assay: G' assay; note: key of the grades not given here
T16 chain: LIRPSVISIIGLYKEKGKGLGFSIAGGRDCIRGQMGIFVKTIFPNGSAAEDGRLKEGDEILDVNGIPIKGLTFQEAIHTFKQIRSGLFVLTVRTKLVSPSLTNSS

[26] = molecular target: T17, GST-PTPL1 PDZ domain 2 (Homo sapiens (Human)), Q12923; assay: G' assay; note: key of the grades not given here
T17 chain: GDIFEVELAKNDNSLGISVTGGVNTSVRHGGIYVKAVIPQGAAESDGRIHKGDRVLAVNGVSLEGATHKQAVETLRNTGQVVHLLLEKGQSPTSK

[27] = molecular target: T18, GST-MINT1 PDZ domain 2 (Mus musculus (Mouse)), B2RUJ5; assay: G' assay; note: key of the grades not given here
T18 chain: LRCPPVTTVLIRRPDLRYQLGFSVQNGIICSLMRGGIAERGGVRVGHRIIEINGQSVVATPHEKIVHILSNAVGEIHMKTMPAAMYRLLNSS

[28] = molecular target: T19, GST-LIM Mystique PDZ domain 1 (Homo sapiens (Human)), Q96JY6; assay: G' assay; note: key of the grades not given here
T19 chain: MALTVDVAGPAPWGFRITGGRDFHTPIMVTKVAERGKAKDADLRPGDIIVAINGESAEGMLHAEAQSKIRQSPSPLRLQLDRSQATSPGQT

[29] = molecular target: T20, GST-MUPP1 PDZ domain 9 (Homo sapiens (Human)), O75970; assay: G' assay; note: key of the grades not given here
T20 chain: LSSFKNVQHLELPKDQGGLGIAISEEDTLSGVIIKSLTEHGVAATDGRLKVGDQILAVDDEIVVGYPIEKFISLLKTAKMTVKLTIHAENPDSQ

[30] = molecular target: T21, GST-ENIGMA PDZ domain 1 (Homo sapiens (Human)), Q9NR12; assay: G' assay; note: key of the grades not given here
T21 chain: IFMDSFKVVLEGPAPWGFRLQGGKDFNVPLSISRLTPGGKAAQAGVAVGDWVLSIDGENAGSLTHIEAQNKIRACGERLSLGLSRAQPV

[31] = molecular target: T22, GST-MUPP1 PDZ domain 7 (Homo sapiens (Human)), O75970; assay: G' assay; note: key of the grades not given here
T22 chain: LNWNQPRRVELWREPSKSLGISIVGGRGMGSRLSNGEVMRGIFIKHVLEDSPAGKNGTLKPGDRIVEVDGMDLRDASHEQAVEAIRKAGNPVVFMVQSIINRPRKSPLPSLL

[32] = molecular target: T23, GST-novel PDZ gene PDZ domain 1 (Homo sapiens (Human)), Q9H5P4; assay: G' assay; note: key of the grades not given here
T23 chain: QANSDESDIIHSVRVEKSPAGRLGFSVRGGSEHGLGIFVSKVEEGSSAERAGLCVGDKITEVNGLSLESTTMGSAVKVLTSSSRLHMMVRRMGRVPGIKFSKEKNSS

[33] = molecular target: T24, GST-MUPP1 PDZ domain 13 (Homo sapiens (Human)), O75970; assay: G' assay; note: key of the grades not given here
T24 chain: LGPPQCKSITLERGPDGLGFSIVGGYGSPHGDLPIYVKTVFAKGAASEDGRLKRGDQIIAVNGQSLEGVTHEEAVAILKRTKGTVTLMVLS

[34] = molecular target: GST-PSD95 PDZ domains 1, 2, 3 (Homo sapiens), P78352; assay: G' assay; note: key of the grades not given here
GST-PSD95 PDZ domains 1, 2, 3 (Homo sapiens), P78352, sequence (P78352 62-395): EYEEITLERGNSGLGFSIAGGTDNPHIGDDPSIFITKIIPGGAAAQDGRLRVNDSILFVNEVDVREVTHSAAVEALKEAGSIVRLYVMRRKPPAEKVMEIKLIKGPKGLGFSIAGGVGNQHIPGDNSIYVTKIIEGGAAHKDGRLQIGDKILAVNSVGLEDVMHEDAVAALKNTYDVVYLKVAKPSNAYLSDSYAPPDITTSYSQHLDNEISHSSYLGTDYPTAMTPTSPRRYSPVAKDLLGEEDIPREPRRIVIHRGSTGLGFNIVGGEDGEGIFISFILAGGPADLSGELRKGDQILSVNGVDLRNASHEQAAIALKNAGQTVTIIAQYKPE

[35] = molecular target: T25, GST-TIP1 PDZ domain 1 (Table 9 insert) (Homo sapiens (Human)), O14907; assay: G' assay; note: key of the grades not given here
T25 chain: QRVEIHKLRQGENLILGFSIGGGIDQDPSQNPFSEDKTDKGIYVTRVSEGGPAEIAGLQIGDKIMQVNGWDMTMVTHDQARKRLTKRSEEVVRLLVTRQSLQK

[36] = molecular target: GST-BAI-1 Associated Protein PDZ domain 2 (Mus musculus (Mouse)), Q6RHR9; assay: G' assay; note: key of the grades not given here
GST-BAI-1 Associated Protein PDZ domain 2 (Mus musculus (Mouse)), Q6RHR9, sequence (Q6RHR9 455-558): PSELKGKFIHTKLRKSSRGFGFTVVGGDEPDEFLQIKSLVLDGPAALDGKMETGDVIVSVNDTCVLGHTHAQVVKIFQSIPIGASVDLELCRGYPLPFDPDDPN

[37] = molecular target: T26, GST-KIAA0303 PDZ domain 1 (Homo sapiens (Human)), O15021; assay: G' assay; note: key of the grades not given here
T26 chain: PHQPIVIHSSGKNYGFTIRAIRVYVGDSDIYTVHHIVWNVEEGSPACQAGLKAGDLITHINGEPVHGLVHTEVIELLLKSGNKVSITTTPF

[38] = molecular target: GST-BAI-1 Associated Protein PDZ domain 4 (Homo sapiens (Human)), Q96QZ7; assay: G' assay; note: key of the grades not given here
GST-BAI-1 Associated Protein PDZ domain 4 (Homo sapiens (Human)), Q96QZ7, sequence (Q96QZ7 other isoform, or with tags, fused parts or gaps): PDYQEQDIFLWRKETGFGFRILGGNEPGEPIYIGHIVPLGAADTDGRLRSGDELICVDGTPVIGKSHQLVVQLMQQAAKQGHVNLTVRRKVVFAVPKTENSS

Row | Binder | Classification [1] | Classification [2] | Classification [3] | Classification [4] | Classification [8] | Classification [9] | Classification [11] | Kd [13] | Classification [14] | Classification [15] | Classification [16] | Classification [19] | other results
1 | KENDYESISDLQQGRDITRL (modifications not checked) [PAG] | 2 A450 class | 5 A450 class | 4 A450 class | 1 A450 class | 1 A450 class | 5 A450 class | 2 A450 class | 350 nM | – | – | – | – | Classification [5]: 1 A450 class; Classification [6]: 1 A450 class; Classification [7]: 1 A450 class; Classification [10]: 2 A450 class; Classification [12]: 3 A450 class
2 | QATSRNGHSARQHVVADTEL (modifications not checked) [CD34] | – | 5 A450 class | 1 A450 class | 1 A450 class | 1 A450 class | 3 A450 class | – | – | 1 A450 class | 1 A450 class | 1 A450 class | – | Classification [17]: 1 A450 class; Classification [18]: 1 A450 class
3 | TEGNESSEATSPVNAIYSLA (modifications not checked) [neurofascin (chicken)] | – | – | – | – | – | – | – | – | – | – | – | 1 A450 class | Classification [20]: 1 A450 class; Classification [21]: 1 A450 class; Classification [22]: 1 A450 class
4 | QPTPTLGLNLGNDPDRGTSI (modifications not checked) [GluR delta-2] | 2 A450 class | 3 A450 class | – | – | – | 4 A450 class | – | 4000 nM | – | – | – | 2 A450 class | –
5 | VHDAESSDEDGYDWGPATDL (modifications not checked) [zona occludens 3 (ZO-3) PL peptide] | – | 5 A450 class | 1 A450 class | 2 A450 class | – | 5 A450 class | 2 A450 class | – | 1 A450 class | 2 A450 class | 2 A450 class | 1 A450 class | Classification [23]: 1 A450 class; Classification [24]: 2 A450 class; Classification [25]: 1 A450 class; Classification [26]: 2 A450 class; Classification [27]: 2 A450 class; Classification [28]: 2 A450 class; Classification [29]: 1 A450 class; Classification [30]: 1 A450 class; Classification [31]: 1 A450 class; Classification [32]: 1 A450 class; Classification [33]: 2 A450 class
6 | QDFRRAFRRILARPWTQTAW (modifications not checked) [alpha-2B Adrenergic receptor] | – | 4 A450 class | – | – | – | – | – | – | – | – | – | – | Classification [34]: 5 A450 class; Classification [35]: 5 A450 class; Classification [36]: 4 A450 class; Classification [37]: 4 A450 class; Classification [38]: 5 A450 class
